What was measured:
[1] = target: T1, Human VSIG4-L-CHO (human VSIG4 long isoform on CHO-K1 cells) (human, UniProt Q9Y279 20-399); assay: flow cytometry (FJB), 200 nM mAb, huVSIG4-L CHO-K1 over parental CHO-K1
T1 construct: also called hVSIG4-L (flow cytometry)
T1 sequence: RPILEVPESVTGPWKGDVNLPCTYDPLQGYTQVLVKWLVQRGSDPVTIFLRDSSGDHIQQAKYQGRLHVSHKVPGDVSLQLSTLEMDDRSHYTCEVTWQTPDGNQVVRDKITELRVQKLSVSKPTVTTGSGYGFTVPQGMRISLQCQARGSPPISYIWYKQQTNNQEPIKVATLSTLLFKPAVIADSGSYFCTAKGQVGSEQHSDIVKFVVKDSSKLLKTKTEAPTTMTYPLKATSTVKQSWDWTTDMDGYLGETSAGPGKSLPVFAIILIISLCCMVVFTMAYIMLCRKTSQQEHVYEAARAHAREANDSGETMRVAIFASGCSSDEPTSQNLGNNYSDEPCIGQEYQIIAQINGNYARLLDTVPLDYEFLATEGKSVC

[2] = target: T2, Human VSIG4-L-Fc (human); assay: BLI binning on hVSIG4-L-Fc, competitor 15C03 first;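 further: normalized to binding of second antibody without first competitor antibody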
T2 construct: also called hVSIG4-L-Fc; hVSIG4-L

[3] = target: T2, Human VSIG4-L-Fc; assay: BLI binning on hVSIG4-L-Fc, competitor 14C05 first;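 further: normalized to binding of second antibody without first competitor antibody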
[4] = target: T1, Human VSIG4-L-CHO (human VSIG4 long …); assay: flow cytometry, CHO-K1 cells expressing hVSIG4-L
[5] = target: T2, Human VSIG4-L-Fc; assay: BLI binning on hVSIG4-L-Fc, competitor 16E10 first;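 further: normalized to binding of second antibody without first competitor antibody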
[6] = target: T1, Human VSIG4-L-CHO (human VSIG4 long …); assay: flow cytometry (FJB), 200 nM mAb, huVSIG4-L CHO-K1 cells
[7] = target: T2, Human VSIG4-L-Fc; assay: ligand competition ELISA (FJB), blocked ligand iC3b
[8] = target: T2, Human VSIG4-L-Fc; assay: BLI binning on hVSIG4-L-Fc, competitor 14D12 first;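 further: normalized to binding of second antibody without first competitor antibody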
[9] = target: T3, Cynomolgus Monkey VSIG4-L-His (cynomolgus monkey); assay: BLI, IgG on AHC sensor, antigen 100 nM
T3 construct: ECD with His tag; also called cyVSIG4-L; cyno VSIG4-L-His
T3 chain: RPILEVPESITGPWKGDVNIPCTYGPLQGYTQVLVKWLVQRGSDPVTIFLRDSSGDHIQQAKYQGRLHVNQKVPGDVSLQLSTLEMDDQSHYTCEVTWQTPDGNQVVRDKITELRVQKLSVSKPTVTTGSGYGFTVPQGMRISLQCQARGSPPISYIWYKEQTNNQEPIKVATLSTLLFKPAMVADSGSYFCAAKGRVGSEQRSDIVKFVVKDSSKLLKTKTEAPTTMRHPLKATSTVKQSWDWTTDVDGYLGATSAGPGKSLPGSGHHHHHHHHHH

[10] = target: T4, Human VSIG4-L-His (human, UniProt Q9Y279 20-283); assay: BLI, IgG on AHC sensor, antigen 100 nM
T4 construct: long isoform ECD with His tag; also called hVSIG4-L
T4 sequence: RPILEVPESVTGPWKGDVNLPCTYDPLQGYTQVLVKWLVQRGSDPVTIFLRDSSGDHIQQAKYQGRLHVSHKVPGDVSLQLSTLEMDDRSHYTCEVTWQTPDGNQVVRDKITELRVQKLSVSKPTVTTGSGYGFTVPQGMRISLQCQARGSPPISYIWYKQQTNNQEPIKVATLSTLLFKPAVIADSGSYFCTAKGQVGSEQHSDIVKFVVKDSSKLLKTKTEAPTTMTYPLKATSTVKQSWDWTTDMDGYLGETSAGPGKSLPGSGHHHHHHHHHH

[11] = target: T2, Human VSIG4-L-Fc; assay: ligand blocking of iC3b, IgG
[12] = target: T3, Cynomolgus Monkey VSIG4-L-His; assay: ELISA, IgG 50 nM on coated antigen;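 further: Mouse-human chimeric IgG4 antibodies incubated 1 h on plate-coated VSIG4 proteins, bound IgG detected with HRP-labelled anti-human IgG, irrelevant antibody and protein as specificity controls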
[13] = target: T5, Human VSIG4-S-Fc (human); assay: ELISA, IgG 50 nM on coated antigen;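 further: Mouse-human chimeric IgG4 antibodies incubated 1 h on plate-coated VSIG4 proteins, bound IgG detected with HRP-labelled anti-human IgG, irrelevant antibody and protein as specificity controls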
T5 construct: short isoform ECD fused to human Fc1; also called hVSIG4-S

[14] = target: T2, Human VSIG4-L-Fc; assay: ELISA, IgG 50 nM on coated antigen;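 further: Mouse-human chimeric IgG4 antibodies incubated 1 h on plate-coated VSIG4 proteins, bound IgG detected with HRP-labelled anti-human IgG, irrelevant antibody and protein as specificity controls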
[15] = target: T6, Mouse VSIG4-His (mouse); assay: ELISA, IgG 50 nM on coated antigen;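 further: Mouse-human chimeric IgG4 antibodies incubated 1 h on plate-coated VSIG4 proteins, bound IgG detected with HRP-labelled anti-human IgG, irrelevant antibody and protein as specificity controls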
T6 construct: ECD with His tag; also called mVSIG4
T6 chain: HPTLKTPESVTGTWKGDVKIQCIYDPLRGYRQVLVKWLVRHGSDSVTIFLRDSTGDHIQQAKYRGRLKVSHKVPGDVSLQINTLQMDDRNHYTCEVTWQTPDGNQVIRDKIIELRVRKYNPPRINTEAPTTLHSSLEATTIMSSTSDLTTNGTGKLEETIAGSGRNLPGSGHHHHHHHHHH

[16] = target: T2, Human VSIG4-L-Fc; assay: BLI binning on hVSIG4-L-Fc, competitor 16E03 first;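 further: normalized to binding of second antibody without first competitor antibody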
[17] = target: T3, Cynomolgus Monkey VSIG4-L-His; assay: SPR (FJB)
[18] = target: T2, Human VSIG4-L-Fc; assay: BLI binning on hVSIG4-L-Fc, competitor 12A08 first;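 further: normalized to binding of second antibody without first competitor antibody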
[19] = target: T2, Human VSIG4-L-Fc; assay: ligand blocking of C3b, IgG
[20] = target: T2, Human VSIG4-L-Fc; assay: BLI binning on hVSIG4-L-Fc, competitor 12A12 first;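 further: normalized to binding of second antibody without first competitor antibody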
[21] = target: T2, Human VSIG4-L-Fc; assay: ligand competition ELISA (FJB), blocked ligand C3b
[22] = target: T2, Human VSIG4-L-Fc; assay: BLI binning on hVSIG4-L-Fc, competitor 15C04 first;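 further: normalized to binding of second antibody without first competitor antibody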
[23] = target: T2, Human VSIG4-L-Fc; assay: BLI binning on hVSIG4-L-Fc, competitor 13H11 first;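 further: normalized to binding of second antibody without first competitor antibody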
[24] = target: T3, Cynomolgus Monkey VSIG4-L-His; assay: BLI (Octet), IgG on AHC sensor, antigen 100 nM
[25] = target: T4, Human VSIG4-L-His; assay: BLI (Octet), IgG on AHC sensor, antigen 100 nM
[26] = target: T2, Human VSIG4-L-Fc; assay: BLI binning on hVSIG4-L-Fc, competitor 15A06 first;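 further: normalized to binding of second antibody without first competitor antibody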
[27] = target: T7, Human VSIG4-S-His (human, UniProt Q9Y279 20-283); assay: BLI (Octet), IgG on AHC sensor
T7 construct: short isoform ECD with His tag; also called hVSIG4-S; VISG4-S-His
T7 sequence: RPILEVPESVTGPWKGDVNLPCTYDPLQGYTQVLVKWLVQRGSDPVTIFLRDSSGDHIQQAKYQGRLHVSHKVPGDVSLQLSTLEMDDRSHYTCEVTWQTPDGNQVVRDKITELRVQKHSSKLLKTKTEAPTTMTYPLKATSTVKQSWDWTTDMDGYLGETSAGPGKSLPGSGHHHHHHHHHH

[28] = target: T2, Human VSIG4-L-Fc; assay: BLI cross-blocking on hVSIG4-L-Fc, competitor 16G02 first
[29] = target: T2, Human VSIG4-L-Fc; assay: BLI cross-blocking on hVSIG4-L-Fc, competitor 14C05 first
[30] = target: T4, Human VSIG4-L-His; assay: SPR (FJB)
[31] = target: T2, Human VSIG4-L-Fc; assay: BLI cross-blocking on hVSIG4-L-Fc, competitor 12A12 first
[32] = target: T7, Human VSIG4-S-His; assay: BLI (Octet), IgG on AHC sensor, antigen 100 nM
[33] = target: T2, Human VSIG4-L-Fc; assay: ligand competition ELISA (FJB), blocked ligand C3b, 200 nM mAb
[34] = target: T2, Human VSIG4-L-Fc; assay: ligand competition ELISA (FJB), blocked ligand iC3b, 200 nM mAb
[35] = target: T3, Cynomolgus Monkey VSIG4-L-His; assay: ELISA, IgG 50 nM on coated antigen; ELISA, bivalent IgG on plate-coated cyVSIG4-L (avid format)

T5 sequence (chain, as listed by the source limits assumed): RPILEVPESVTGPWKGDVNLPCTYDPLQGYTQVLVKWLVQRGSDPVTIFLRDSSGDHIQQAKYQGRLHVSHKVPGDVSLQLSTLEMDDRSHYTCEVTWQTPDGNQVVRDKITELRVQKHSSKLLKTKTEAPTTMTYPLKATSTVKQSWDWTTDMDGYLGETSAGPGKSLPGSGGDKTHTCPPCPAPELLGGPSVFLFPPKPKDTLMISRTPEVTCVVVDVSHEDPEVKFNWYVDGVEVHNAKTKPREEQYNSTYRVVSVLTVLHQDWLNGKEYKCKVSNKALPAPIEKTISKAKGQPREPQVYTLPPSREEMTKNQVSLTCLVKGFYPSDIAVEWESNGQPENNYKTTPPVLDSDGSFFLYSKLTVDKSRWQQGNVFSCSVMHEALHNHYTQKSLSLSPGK

B1: 13H11 mouse/human chimeric IgG4 (S228P) kappa (antibody, V domains shown)
VH: QIQLVQSGPELKKPGETVKISCKASGYTFENFGMNWVKQAPGKGLKWMGWINTYTGEATYADDFKGRFAFSLETSASTAYLQINNLKNEDTATYFCARDGGFRHFDVWGAGTTVTVSS
VL: ETTVTQSPASLSVATGEKVTIRCITSTDIDDDMNWYQQKPGEPPKLLISEGNTLRPGVPSRFSSSGYGTDFVFTIENMLSEDVADYYCLQSDNLPLTFGAGTKLELKR
[1]
  Binding (200 nM) Fold-Over-Parental: 140 fold
[2]
  normalized maximum binding nm shift: 0.86 normalized
[3]
  normalized maximum binding nm shift: 0.74 normalized
[4]
  EC50: 1.2 nM
[5]
  normalized maximum binding nm shift: 0.95 normalized
[6]
  Binding (200 nM) MFI: 54300 MFI
[7]
  IC50: 440 nM
[8]
  normalized maximum binding nm shift: 0.69 normalized
[9]
  KD relative to parental chimera: 1 fold
[10]
  KD relative to parental chimera: 1 fold
[11]
  Percent Blocking iC3b: 78%
[12]
  ELISA OD450: 4.37 OD450
[13]
  ELISA OD450: 0.44 OD450
[14]
  ELISA OD450: 4.27 OD450
[15]
  ELISA OD450: 0.048 OD450
[16]
  normalized maximum binding nm shift: 0.72 normalized
[17]
  Kd: 20.1 nM
[18]
  normalized maximum binding nm shift: 0.7 normalized
[19]
  Percent Blocking C3b: 75%
[20]
  normalized maximum binding nm shift: 0.74 normalized
[21]
  IC50: ~7 nM
[22]
  normalized maximum binding nm shift: 0.68 normalized
[23]
  normalized maximum binding nm shift: 0.09 normalized
[24]
  Kd: 20.3 nM
[25]
  Kd: 50.6 nM
[26]
  normalized maximum binding nm shift: 0.51 normalized
[27]
  binding result: no binding (tested: 100 nM)

B2: 14C05 mouse/human chimeric IgG4 (S228P) kappa (antibody, V domains shown)
VH: EVMLVESGPELKKPGETVKISCKASGYTFTNYGMNWVKQAPGKGLKWMGSINTYTGEATYADDFKGRFAFSLETSANTAYLQIDNLKNEDTATYFCARGDYYGRGTWFAYWGQGTLVTVSA
VL: ETTVTQSHKFMSTSVGDRVSITCKASQDVSTAVAWYQQKPGQSPKLLIYSASYRYPGVPDRFTGSGSGTDFTFTISSVQAEDLAVYYCQQDYSSPWTFGGGTKLEIKR
[1]
  Binding (200 nM) Fold-Over-Parental: 304 fold
[2]
  normalized maximum binding nm shift: 0.38 normalized
[3]
  normalized maximum binding nm shift: 0.11 normalized
[4]
  EC50: 4.4 nM
[5]
  normalized maximum binding nm shift: 0.87 normalized
[6]
  Binding (200 nM) MFI: 109000 MFI
[28]
  binding signal (nm shift): 0.16 nm
[8]
  normalized maximum binding nm shift: 0.07 normalized
[9]
  KD relative to parental chimera: 1 fold
[10]
  KD relative to parental chimera: 1 fold
[12]
  ELISA OD450: 4.52 OD450
[13]
  ELISA OD450: 4.36 OD450
[14]
  ELISA OD450: 4.51 OD450
[15]
  ELISA OD450: 0.055 OD450
[29]
  binding signal (nm shift): 0.11 nm
[16]
  normalized maximum binding nm shift: 0.62 normalized
[17]
  Kd: 5.4 nM
[30]
  Kd: 1.7 nM
[18]
  normalized maximum binding nm shift: 0.75 normalized
[19]
  Percent Blocking C3b: 96%
[31]
  binding signal (nm shift): 0.83 nm
[20]
  normalized maximum binding nm shift: 0.83 normalized
[21]
  IC50: 2.4 nM
[22]
  normalized maximum binding nm shift: 0.76 normalized
[23]
  normalized maximum binding nm shift: 0.66 normalized
[24]
  Kd: 30 nM
[25]
  Kd: 3.46 nM
[32]
  Kd: 2.69 nM
[26]
  normalized maximum binding nm shift: 0.68 normalized

B3: 16E03 mouse/human chimeric IgG4 (S228P) kappa (antibody, V domains shown)
VH: QVQLQQSGAELARPGASVKMSCKASGYTFTSYTMHWIKQRPGQGLEWIGYINPSSGHTYYNQKFKDKATLTPDKSSSTAYMQLTSLTSEDSAVYYCARRIPTAYAMDYWGQGTSVTVSS
VL: EIQMTQSHKFMSTSVGDRVSITCKASQDVGTAVAWYQQKPGQSPKLLIYWASTRHTGVPDRFTGSGSGTDFTLTISNVQSEDLADYFCQQYSSYPLTFGAGTKLELKR
[1]
  Binding (200 nM) Fold-Over-Parental: 23 fold
[2]
  normalized maximum binding nm shift: 0.1 normalized
[3]
  normalized maximum binding nm shift: 0.78 normalized
[4]
  EC50: 1 nM
[5]
  normalized maximum binding nm shift: 0.37 normalized
[6]
  Binding (200 nM) MFI: 30400 MFI
[33]
  % Block C3b (200 nM mAb): -192%
[8]
  normalized maximum binding nm shift: 0.79 normalized
[13]
  ELISA OD450: 4.13 OD450
[14]
  ELISA OD450: 4.5 OD450
[15]
  ELISA OD450: 0.054 OD450
[16]
  normalized maximum binding nm shift: 0.04 normalized
[30]
  Kd: 29.7 nM
[18]
  normalized maximum binding nm shift: 0.13 normalized
[34]
  % Block iC3b (200 nM mAb): -3%
[20]
  normalized maximum binding nm shift: 0.9 normalized
[22]
  normalized maximum binding nm shift: 0.86 normalized
[23]
  normalized maximum binding nm shift: 0.76 normalized
[25]
  Kd: 49.3 nM
[32]
  Kd: 49.3 nM
[35]
  ELISA OD450: 4.36 OD450
[26]
  normalized maximum binding nm shift: 0.83 normalized

— patent US20230348603A1 (VERSEAU THERAPEUTICS, published 2023)
